Target: nucleosome with full-length recombinant Xenopus laevis histones acetylated by the lysine acetyltrans (X. laevis) (UniProt P62799)
Experiment: single-particle negative-staining TEM in a DNA origami force spectrometer

depth of the minimum of the nucleosome pair potential: -0.6 kcal/mol
Substance: nucleosome with full-length recombinant Xenopus laevis histones acetylated by the lysine acetyltrans (from UniProt P62799 1-103) (complex)

From article PMC5262459
